The values below come from the RNAGym collection of RNA variant scans (doi:10.7554/elife.80360).

To fix the notation:
B1: HDV Ribozyme (parent)
chain: GGCCGGCAUGGUCCCAGCCUCCUCGCUGGCGCCGGCUGGGCAACAUUCCGAGGGGACCGUCCCCUCGGUAAUGGCGAAUGGGACCCA

The variants in the series derive from B1. In words: self-cleavage, relative activity (ratio to wild type); higher = more cleavage; co-transcriptional.
Turning to G11C U60G, the self-cleavage was 0.256.

As for G11C U60C, the self-cleavage was determined as 0.511.

In the case of G11C U60A, the self-cleavage turned out to be 0.0831.

For the variant G11C G17A, the self-cleavage amounted to 0.231.

With G11C G17C, the self-cleavage was determined as 0.0536.

For the variant G11U G35C, the self-cleavage was 0.0449.

With G11U G35A, the self-cleavage was 0.241.

With G11C U20G, the self-cleavage is 0.

Take G11C U20A: the self-cleavage is 0.0978.

Regarding G11U G67C, the self-cleavage is 0.262.

As to G11U C41G, the self-cleavage came out at 0.204.

As to G11C G38C, the self-cleavage was found to be 0.0755.

Take G11U A16C: the self-cleavage came out at 0.38.

As to G11U C58A, the self-cleavage is 0.326.

For G11U C36U, the self-cleavage came to 0.138.

On to G11U C36G, for which the self-cleavage was 0.0615.

On to G11U G81A, for which the self-cleavage came out at 0.0623.

On to G11U C62A, for which the self-cleavage came to 0.487.

Take G11U C62G: the self-cleavage is 0.151.

Consider G11U C61U, for which the self-cleavage stood at 0.443.

Regarding G11U C61A, the self-cleavage amounted to 0.355.

Regarding G11U C61G, the self-cleavage was 0.315.

On to G11U C49G, for which the self-cleavage worked out at 0.166.

Regarding G11U C49U, the self-cleavage was found to be 0.386.

Turning to G11C G54A, the self-cleavage turned out to be 0.277.

Turning to G11C G54C, the self-cleavage is 0.291.

As for G11U C32A, the self-cleavage amounted to 0.0545.

As to G11C G34U, the self-cleavage is 0.0302.

Regarding G11U G31C, the self-cleavage stood at 0.146.

Regarding G11U C66A, the self-cleavage was found to be 0.31.

Regarding G11U G59U, the self-cleavage was 0.41.

Take G11U G59A: the self-cleavage is 0.499.

As to G11U G59C, the self-cleavage came out at 0.297.

As to G11U A77G, the self-cleavage was determined as 0.283.

For G11U, the self-cleavage turned out to be 0.366.

For G11U G76A, the self-cleavage was 0.292.

G11C G35C: the self-cleavage is 0.151.

Regarding G11C U37G, the self-cleavage is 0.101.

On to G11C U65G, for which the self-cleavage came to 0.

G11C U65A: the self-cleavage is 0.293.

G11U G29A: the self-cleavage was determined as 0.158.

Consider G11U G29C, for which the self-cleavage stood at 0.0231.

On to G11U G29U, for which the self-cleavage was found to be 0.0536.

As for G11C G68U, the self-cleavage is 0.291.

In the case of G11C G68C, the self-cleavage came to 0.0831.

As for G11C C66U, the self-cleavage amounted to 0.289.

Regarding G11C C85U, the self-cleavage is 0.266.

For G11C C85A, the self-cleavage is 1.18.

Consider G11U C18G, for which the self-cleavage was found to be 0.158.

As for G11U C57U, the self-cleavage stood at 0.282.

For G11C C75A, the self-cleavage was 0.0536.

Turning to G11C C75G, the self-cleavage was determined as 0.133.

In the case of G11U A83C, the self-cleavage is 0.119.

With G11C G76C, the self-cleavage is 0.628.

Take G11C G76A: the self-cleavage came to 0.312.

Turning to G11C G76U, the self-cleavage is 0.604.

Turning to G11U A51G, the self-cleavage came to 0.415.

G11U C63A: the self-cleavage stood at 0.228.

In the case of G11U C63U, the self-cleavage came to 0.364.

On to G11U G40A, for which the self-cleavage stood at 0.387.

Consider G11U A78G, for which the self-cleavage came to 0.106.

As to G11U A78C, the self-cleavage came out at 0.02.

For the variant G11U G82A, the self-cleavage was 0.0678.

Consider G11U G82C, for which the self-cleavage stood at 0.117.

On to G11C G25U, for which the self-cleavage was determined as 0.

Turning to G11C G25C, the self-cleavage worked out at 0.0475.

Consider G11C G25A, for which the self-cleavage turned out to be 0.0449.

G11C U72A: the self-cleavage was found to be 0.0875.

As for G11C G31C, the self-cleavage came out at 0.0791.

Take G11C G31U: the self-cleavage came out at 0.0482.

Take G11C G50C: the self-cleavage came out at 0.365.

G11C G40A: the self-cleavage is 0.208.

For G11C G40C, the self-cleavage was found to be 0.0475.

With G11C G29A, the self-cleavage came to 0.

Take G11U G39A: the self-cleavage came to 0.128.

For the variant G11U C26A, the self-cleavage came out at 0.689.

G11C G73C: the self-cleavage is 0.0346.

In the case of G11U C75A, the self-cleavage came to 0.0231.

On to G11U C75G, for which the self-cleavage is 0.0264.

Turning to G11C G74U, the self-cleavage is 0.0963.

As for G11C G74C, the self-cleavage stood at 0.

Regarding G11U G74A, the self-cleavage was 0.114.

As for G11U G74C, the self-cleavage was 0.0845.

Turning to G11U A87U, the self-cleavage is 0.199.

Consider G11U C13G, for which the self-cleavage is 0.0831.

Turning to G11U C13A, the self-cleavage was 0.197.

As for G11U G50U, the self-cleavage is 0.583.

In the case of G11U C33G, the self-cleavage stood at 0.0594.

For G11U C33U, the self-cleavage was determined as 0.0997.

In the case of G11U G38U, the self-cleavage was determined as 0.0961.

Consider G11C U79G, for which the self-cleavage was 0.0875.

Turning to G11C U79A, the self-cleavage is 0.0723.

In the case of G11C G39C, the self-cleavage was found to be 0.0489.

On to G11C G39A, for which the self-cleavage turned out to be 0.264.

G11U A71G: the self-cleavage worked out at 0.302.

Regarding G11U A71U, the self-cleavage turned out to be 0.158.

In the case of G11C G82U, the self-cleavage stood at 0.104.

Turning to G11C G82C, the self-cleavage is 0.287.

With G11C C58U, the self-cleavage was determined as 0.242.

With G11C C58A, the self-cleavage was 0.378.

Regarding G11C C84A, the self-cleavage amounted to 0.458.

As for G11C G59U, the self-cleavage worked out at 0.35.

For the variant G11C G59C, the self-cleavage turned out to be 0.415.

On to G11C U23A, for which the self-cleavage stood at 0.465.

Take G11C C63A: the self-cleavage stood at 0.314.

Take G11C C63G: the self-cleavage turned out to be 0.434.

Turning to G11U C21G, the self-cleavage was determined as 0.086.

G11U C24A: the self-cleavage came to 0.112.

In the case of G11C U69A, the self-cleavage is 0.166.

Take G11U G73U: the self-cleavage came to 0.111.

On to G11U G17C, for which the self-cleavage is 0.203.

In the case of G11U G17A, the self-cleavage was determined as 0.45.

G11U G17U: the self-cleavage stood at 0.308.

Consider G11C C64U, for which the self-cleavage stood at 0.269.

On to G11C C64A, for which the self-cleavage was 0.629.

For the variant G11U A45C, the self-cleavage worked out at 0.0841.

For G11U A45G, the self-cleavage is 0.587.

For the variant G11U G68C, the self-cleavage is 0.297.

Turning to G11U G68U, the self-cleavage worked out at 0.17.

Take G11U G68A: the self-cleavage amounted to 0.205.

As to G11C U47C, the self-cleavage stood at 0.453.

As for G11C U47G, the self-cleavage was 0.383.

Consider G11C G52U, for which the self-cleavage turned out to be 0.228.

As for G11C G52A, the self-cleavage turned out to be 0.232.

For G11C C62A, the self-cleavage amounted to 0.475.

Regarding G11U G55C, the self-cleavage was 0.35.

In the case of G11U G55U, the self-cleavage turned out to be 0.436.

Take G11U G55A: the self-cleavage amounted to 0.463.

For the variant G11C U46A, the self-cleavage worked out at 0.115.

Regarding G11C U46C, the self-cleavage is 0.123.

As to G11U C22A, the self-cleavage turned out to be 0.0179.

As for G11U C22U, the self-cleavage is 0.103.

As for G11U C22G, the self-cleavage amounted to 0.

G11U U20C: the self-cleavage was 0.0248.

Regarding G11U C14A, the self-cleavage turned out to be 0.0707.

With G11C G81A, the self-cleavage worked out at 0.

On to G11U G28C, for which the self-cleavage came to 0.0992.

Regarding G11U A70G, the self-cleavage stood at 0.201.

For G11U A70U, the self-cleavage is 0.228.

In the case of G11C C86G, the self-cleavage was determined as 0.312.

Consider G11C G55C, for which the self-cleavage is 0.228.

Regarding G11C G55U, the self-cleavage was 0.305.

As to G11U A42C, the self-cleavage turned out to be 0.0308.

Take G11U A42G: the self-cleavage is 0.0386.

Consider G11U G52C, for which the self-cleavage is 0.218.

For the variant G11U G52A, the self-cleavage came out at 0.375.

With G11U C84A, the self-cleavage turned out to be 1.12.

As for G11U C84U, the self-cleavage came to 0.292.

For G11U C48G, the self-cleavage was 0.212.

Turning to G11U G25C, the self-cleavage worked out at 0.104.

Regarding G11U G25A, the self-cleavage turned out to be 0.

Take G11C G80A: the self-cleavage turned out to be 0.136.

Turning to G11C C57U, the self-cleavage was determined as 0.388.

For the variant G11C U12C, the self-cleavage came to 0.145.

For G11C U12A, the self-cleavage came out at 0.

For G11C U12G, the self-cleavage was 0.123.

Take G11C U27A: the self-cleavage is 0.646.

As to G11C U27C, the self-cleavage was 0.196.

For the variant G11U C30A, the self-cleavage worked out at 0.128.

As for G11U C64U, the self-cleavage was 0.519.

As to G11U C15G, the self-cleavage is 0.166.

As to G11U G53C, the self-cleavage amounted to 0.284.

With G11U G53U, the self-cleavage stood at 0.385.

In the case of G11U G54A, the self-cleavage turned out to be 0.313.

Take G11U G54C: the self-cleavage is 0.57.

As for G11U A43C, the self-cleavage came to 0.0594.

In the case of G11U A43G, the self-cleavage came to 0.0339.
